# Results reported in US20060263849A1, “Glucagon-like peptide-1 analogs” (priority 2000, published 2006).
# Where “and” joins values, the source holds several entries; their conditions need not be identical. Equal entries are not always repeated. Where no end group is shown, it is not given here.
# Columns and labels:
# [1] = GLP Aggregation Assay (time to onset of aggregation, turbidity at 350 nm); assay type: physicochemical; conditions: for Aggregation Time: 0.3 mg/mL in 10 mM citrate, 10 mM phosphate, 150 mM NaCl, pH 7.4 to 7.5, 37° C., stirred, turbidity at 350 nm
# Protocol: GLP peptides of this invention were analyzed with respect to their potential to aggregate in solution. In general, peptides in solution were stirred at elevated temperature in a suitable buffer while recording turbidity at 350 nm as a function of time. Time to the onset of aggregation was measured to quantify the potential of a given GLP molecule to aggregate under these stressed conditions.
# A GLP-1 compound was first dissolved under alkaline conditions (pH 10.5) for 30 minutes to dissolve any pre-aggregated material. The solution was then adjusted to pH 7.4 and filtered. Specifically, 4 mg of a lyophilized GLP-1 compound was dissolved in 3 ml of 10 mM phosphate/10 mM citrate. The pH was adjusted to 10.0-10.5 and held for 30 minutes. The solution was adjusted with HCl to pH 7.4 and filtered through a suitable filter, for example a Millex GV syringe filter (Millipore Corporation, Bedford, Mass.). This solution was then diluted to a final sample containing 0.3 mg/mL protein in 10 mM citrate, 10 mM phosphate, 150 mM NaCl, and adjusted to pH 7.4 to 7.5. […] Every five minutes the turbidity of the solution was measured at 350 nm on an AVIV Model 14DS UV-VIS spectrophotometer (Lakewood, N.J.). For 30 seconds prior to and during the measurement the solution was stirred using a magnetic stir bar from Starna Cells, Inc. (Atascadero, Calif.). An increase in OD at 350 nm indicates aggregation of the GLP-peptide. The time to aggregation was approximated by the intersection of linear fits to the pre-growth and growth phase according to method of Drake (Arvinte T, Cudd A, and Drake A F. (1993) J. Bio. Chem. 268, 6415-6422).
# The cuvette was cleaned between experiments with a caustic soap solution (e.g., Contrad-70).
# The results for a number of GLP-1 compounds of the present invention are reported in Table 1 as the time in hours required for the compound to aggregate.
# GLP-1 receptor = GLP-1 receptor activation, in vitro assays; assay type: cell-based; conditions: for GLP-1 Receptor Activation: activity relative to the activity of GLP-1(7-37)OH
# Excerpt: “Insulinotropic activity” refers to stimulating insulin secretion in response to elevated glucose levels, thereby causing glucose uptake by cells and decreased serum glucose levels. Insulinotropic activity can be assessed by methods known in the art, including using in vivo experiments and in vitro assays that measure GLP-1 receptor binding activity or receptor activation, e.g., assays employing pancreatic islet cells or insulinoma cells, as described in EP 619,322 to Gelfand, et al., and U.S. Pat. No. 5,120,712, respectively. The entire teachings of these references are incorporated herein by reference.
# The ability of the GLP-1 compounds of the present invention to activate the GLP-1 receptor was assessed using in vitro assays such as those described in EP 619,322 to Gelfand, et al., and U.S. Pat. No. 5,120,712, respectively. The entire teachings of these references are incorporated herein by reference.
# [2] = Zinc precipitation of GLP-1 compounds (A280 of supernatant); assay type: physicochemical; conditions: HEPES pH 7.4, 22° C., 18 hours
# Protocol: Individual GLP-1 compounds were prepared as described in Examples 1 or 2. 3 mg of an individual lyophilized GLP molecule was dissolved in 3 ml 0.1 M HEPES buffer pH 10.5. The pH of the resulting solution was then adjusted to between 10.0 and 10.5 with 0.2 N NaOH. The solution was stirred at ambient temperature for 30 minutes and the solution was then adjusted to a pH of 7.4 with 0.2 N HCl. The solution was filtered through an appropriate syringe filter, for example a Millex GV syringe filter (Millipore Corporation, Bedford, Mass.), and the concentration of the GLP-1 compound was estimated by measuring the absorption at 280 nm in a spectrophotometer, for example a Beckman DU640. The protein concentration was then adjusted to 200 μM in HEPES pH 7.4.
# The filtered GLP-1 solutions (100 μl) were diluted with 100 μl of 0.1 M HEPES pH 7.4 containing various levels of zinc chloride in an ELISA plate, (e.g. Falcon Microtest™ 96) resulting in 200 μl of solution containing various levels of zinc chloride and 100 μM GLP-1 compounds. These solutions were incubated at ambient temperature (22° C.) for 18 hours and then centrifuged, for example, in a Jouan CR412 centrifuge with microplate adapters. 150 μl of the supernatants after centrifugation were then transferred to a UV-readable ELISA microtiter plate (e.g. Costar UV plate) and the OD at 280 was determined in a microplate reader (e.g. Molecular Devices SPECTRAmax PLUS, SOFTmax PRO). A280 values are the result of two independent determinations.
# [3] = Zn/GLP-1 molar ratio 0, 100 μM GLP-1 compound
# [4] = Zn/GLP-1 molar ratio 0.3, 100 μM GLP-1 compound
# [5] = Zn/GLP-1 molar ratio 0.5, 100 μM GLP-1 compound
# [6] = Zn/GLP-1 molar ratio 0.7, 100 μM GLP-1 compound
# [7] = Zn/GLP-1 molar ratio 1, 100 μM GLP-1 compound
# [8] = Zn/GLP-1 molar ratio 2, 100 μM GLP-1 compound
# [9] = Zn/GLP-1 molar ratio 3, 100 μM GLP-1 compound
# [10] = Zn/GLP-1 molar ratio 5, 100 μM GLP-1 compound
Substance,Aggregation Time [1],GLP-1 Receptor Activation (GLP-1 receptor),other results
Gln^22-GLP-1(7-37)OH (HAEGTFTSDVSSYLEQQAAKEFIAWLVKGRG),7 h,0.42,"A280 [2, 3]: 0.290; A280 [2, 4]: 0.390; A280 [2, 5]: 0.123; A280 [2, 6]: 0.076; A280 [2, 7]: 0.074; A280 [2, 8]: 0.095; A280 [2, 9]: 0.095; A280 [2, 10]: 0.097"
Val^8-Ala^22-GLP-1(7-37)OH (HVEGTFTSDVSSYLEAQAAKEFIAWLVKGRG),19 h,0.56,"A280 [2, 3]: 0.289; A280 [2, 4]: 0.202; A280 [2, 5]: 0.107; A280 [2, 6]: 0.104; A280 [2, 7]: 0.110; A280 [2, 8]: 0.110; A280 [2, 9]: 0.104; A280 [2, 10]: 0.119"
Val^8-Asp^22-GLP-1(7-37)OH (HVEGTFTSDVSSYLEDQAAKEFIAWLVKGRG),>90 h,0.40,"A280 [2, 3]: 0.288; A280 [2, 4]: 0.2785; A280 [2, 5]: 0.2845; A280 [2, 6]: 0.287; A280 [2, 7]: 0.291; A280 [2, 8]: 0.184; A280 [2, 9]: 0.1485; A280 [2, 10]: 0.1675"
Val^8-Glu^22-GLP-1(7-37)OH (HVEGTFTSDVSSYLEEQAAKEFIAWLVKGRG),72 h,1.29,"aggregation time compared with GLP-1(7-37)OH ([1]; relative to GLP-1(7-37)OH): over twenty fold greater; GLP-1 receptor activation greater than GLP-1(7-37)OH (GLP-1 receptor; relative to GLP-1(7-37)OH): about 25%; A280 [2, 3]: 0.295; A280 [2, 4]: 0.291; A280 [2, 5]: 0.292; A280 [2, 6]: 0.293; A280 [2, 7]: 0.26; A280 [2, 8]: 0.078; A280 [2, 9]: 0.052; A280 [2, 10]: 0.035"
Val^8-His^22-GLP-1(7-37)OH (HVEGTFTSDVSSYLEHQAAKEFIAWLVKGRG),>75 h,0.14,
Val^8-His^24-GLP-1(7-37)OH (HVEGTFTSDVSSYLEGQHAKEFIAWLVKGRG),3 h,0.007,
Val^8-His^27-GLP-1(7-37)OH (HVEGTFTSDVSSYLEGQAAKHFIAWLVKGRG),10 h,0.37,
Val^8-His^30-GLP-1(7-37)OH (HVEGTFTSDVSSYLEGQAAKEFIHWLVKGRG),13 h,0.19,
Val^8-His^35-GLP-1(7-37)OH (HVEGTFTSDVSSYLEGQAAKEFIAWLVKHRG),> 45 h and 30 h,0.41,
Val^8-His^36-GLP-1(7-37)OH (HVEGTFTSDVSSYLEGQAAKEFIAWLVKGHG),8 h,0.22,
Val^8-His^37-GLP-1(7-37)OH (HVEGTFTSDVSSYLEGQAAKEFIAWLVKGRH),>40 h,0.33,
Val^8-Leu^16-Glu^26-GLP-1(7-37)OH (HVEGTFTSDLSSYLEGQAAEEFIAWLVKGRG),>20 h,0.23,
Val^8-Lys^11-GLP-1(7-37)OH (HVEGKFTSDVSSYLEGQAAKEFIAWLVKGRG),13 h,0.001,
Val^8-Lys^20-GLP-1(7-37)OH (HVEGTFTSDVSSYKEGQAAKEFIAWLVKGRG),5 h,0.33,
Val^8-Lys^22-GLP-1(7-36)NH2 (HVEGTFTSDVSSYLEKQAAKEFIAWLVKGR-NH2),24 h,0.53,
Val^8-Lys^22-Glu^23-GLP-1(7-37)OH (HVEGTFTSDVSSYLEKEAAKEFIAWLVKGRH),>30 h,0.35,
Val^8-Lys^22-Glu^30-GLP-1(7-37)OH (HVEGTFTSDVSSYLEKQAAKEFIEWLVKGRG),4 h,0.37,
Val^8-Lys^23-GLP-1(7-37)OH (HVEGTFTSDVSSYLEGKAAKEFIAWLVKGRG),>45 h,0.18,
Val^8-Lys^24-GLP-1(7-37)OH (HVEGTFTSDVSSYLEGQKAKEFIAWLVKGRG),22 h,0.02,
Val^8-Lys^33-Asn^34-GLP-1(7-37)OH,>48 h,0.09,
Val^8-Lys^33-Val^34-GLP-1(7-37)OH (HVEGTFTSDVSSYLEGQAAKEFIAWLKVGRG),22 h,0.08,
Val^8-Pro^35-GLP-1(7-37)OH (HVEGTFTSDVSSYLEGQAAKEFIAWLVKPRG),14 h,0.094,
Val^8-Ser^30-GLP-1(7-37)OH (HVEGTFTSDVSSYLEGQAAKEFISWLVKGRG),8 h,0.19,
Val^8-Tyr^12-GLP-1(7-37)OH (HVEGTYTSDVSSYLEGQAAKEFIAWLVKGRG),6 h,0.81,
Val^8-Tyr^16-GLP-1(7-37)OH (HVEGTFTSDYSSYLEGQAAKEFIAWLVKGRG),5 h,1.175,
